Data taken from article PMC10248732.
Like-named read-outs stand apart in the source and are kept apart here.

T1: GST-OsLUX (Oryza sativa, UniProt Q94DH3 1-238)
T1 sequence: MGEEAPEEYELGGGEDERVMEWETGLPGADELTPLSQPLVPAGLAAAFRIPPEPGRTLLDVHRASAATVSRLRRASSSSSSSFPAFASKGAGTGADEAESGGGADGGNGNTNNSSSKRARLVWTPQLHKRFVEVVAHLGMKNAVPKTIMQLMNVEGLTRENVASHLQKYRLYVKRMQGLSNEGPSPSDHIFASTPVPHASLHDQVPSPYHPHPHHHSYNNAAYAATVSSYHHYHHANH

B1: Hd1-P (S4 LBS, 3 copies) (dsDNA)
DNA 1: CGCTGGATTCGACTTGCGCTGGATTCGACTTGCGCTGGATTCGACTTG
DNA 2: CAAGTCGAATCCAGCGCAAGTCGAATCCAGCGCAAGTCGAATCCAGCG
B2: Ghd7-P (LBS, 3 copies) (dsDNA)
DNA 1: CAGCACGAATCTTGAGCAGCACGAATCTTGAGCAGCACGAATCTTGAG
DNA 2: CTCAAGATTCGTGCTGCTCAAGATTCGTGCTGCTCAAGATTCGTGCTG

Experiments:
[1] = target: T1, GST-OsLUX; assay: EMSA
[2] = target: T1, GST-OsLUX; assay: EMSA; remark: listed apart in the source

Row | Binder | binding result [1] | binding result [2]
1 | B1 | binds | –
2 | B2 | – | binds
